In patent publication US20110014656A1 (ZymoGenetics, published 2011):

Experiments:
[1] = target: T1, human IL-17RC, x1 splice variant, on transfected cells (human, UniProt Q8NAC3 21-791); test: FACS, biotinylated cytokine on transiently transfected 293F cells
T1 construct: Expressed on BHK, 293F or NIH3T3 cells; also called hIL-17RC; hIL-17RC (x1)
T1 sequence: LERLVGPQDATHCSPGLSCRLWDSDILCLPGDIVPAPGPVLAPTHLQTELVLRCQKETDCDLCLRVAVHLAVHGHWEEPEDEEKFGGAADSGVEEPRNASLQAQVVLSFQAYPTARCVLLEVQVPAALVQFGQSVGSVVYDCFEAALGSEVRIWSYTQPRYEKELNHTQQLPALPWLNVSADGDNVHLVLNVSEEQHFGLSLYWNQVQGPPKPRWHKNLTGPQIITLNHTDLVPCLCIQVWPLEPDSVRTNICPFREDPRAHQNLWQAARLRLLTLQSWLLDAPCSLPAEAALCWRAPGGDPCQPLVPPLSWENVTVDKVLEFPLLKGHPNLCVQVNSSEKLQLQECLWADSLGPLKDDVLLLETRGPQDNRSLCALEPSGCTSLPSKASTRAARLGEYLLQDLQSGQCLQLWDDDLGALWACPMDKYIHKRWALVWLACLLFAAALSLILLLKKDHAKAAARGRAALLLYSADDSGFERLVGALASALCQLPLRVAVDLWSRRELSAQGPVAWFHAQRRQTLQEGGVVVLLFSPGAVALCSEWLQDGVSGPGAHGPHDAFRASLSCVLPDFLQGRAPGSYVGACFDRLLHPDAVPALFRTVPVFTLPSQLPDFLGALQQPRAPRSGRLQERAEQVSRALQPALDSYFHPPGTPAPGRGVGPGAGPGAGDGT
Excerpt: (§1) However, the other splice variants tested either included or excluded hIL-17RC exon 12. These variants were designated hIL-17RCx1 (identical in exon composition to mouse x1 above), hIL-17RCx4 (identical in exon composition to mouse x4 above), hIL-17RCx2, and hIL-17RCx7.

[2] = target: T2, human IL-17RC, x4 splice variant, on transfected cells (human, UniProt Q8NAC3 21-791); test: as above
T2 construct: Expressed on 293F, BHK or NIH3T3 cells; also called hIL-17RCx4; hIL-17RCX4
T2 sequence: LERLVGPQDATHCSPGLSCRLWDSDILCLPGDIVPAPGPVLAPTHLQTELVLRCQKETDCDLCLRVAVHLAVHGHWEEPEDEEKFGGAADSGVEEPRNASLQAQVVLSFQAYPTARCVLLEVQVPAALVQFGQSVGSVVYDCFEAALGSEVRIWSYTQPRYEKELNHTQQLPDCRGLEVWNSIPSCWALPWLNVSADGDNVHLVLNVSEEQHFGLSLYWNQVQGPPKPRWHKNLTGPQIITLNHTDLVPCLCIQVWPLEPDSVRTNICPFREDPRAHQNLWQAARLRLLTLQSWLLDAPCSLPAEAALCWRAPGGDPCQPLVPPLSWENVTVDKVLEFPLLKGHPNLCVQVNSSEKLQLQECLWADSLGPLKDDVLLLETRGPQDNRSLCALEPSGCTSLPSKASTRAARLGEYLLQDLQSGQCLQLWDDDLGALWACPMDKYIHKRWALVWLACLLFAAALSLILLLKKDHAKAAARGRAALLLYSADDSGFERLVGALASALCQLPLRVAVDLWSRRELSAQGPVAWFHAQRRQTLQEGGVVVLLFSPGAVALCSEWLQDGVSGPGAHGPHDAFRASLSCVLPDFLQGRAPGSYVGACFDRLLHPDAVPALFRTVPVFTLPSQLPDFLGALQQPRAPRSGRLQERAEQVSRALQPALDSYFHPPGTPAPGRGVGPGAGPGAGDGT
Excerpt: as §1

[3] = target: T1, human IL-17RC, x1 splice variant, on …; test: competition, cold competitor vs 125I-IL-17A on BHK hIL-17RC cells
Experimental: Cold competitors were added in 100 fold molar excess. […] Wells were incubated on ice for 1-hour followed by two washes with PBS (Invitrogen 20012-027) and one wash with a high salt solution (1.5M NaCL, 50 mM HEPES pH 7.4). Wells were extracted with 500 ul of 0.8M NaOH for 30 min. at room temperature and counts per minute were measured in a gamma counter (Packard Cobra II A5005).

[4] = target: T3, human IL-17 receptor (IL-17RA) on transfected cells (human, UniProt Q96F46 33-320); test: FACS, biotinylated cytokine on stably transfected BHK cells
T3 construct: it may not be the full-length receptor; also called hIL-17RA
T3 sequence: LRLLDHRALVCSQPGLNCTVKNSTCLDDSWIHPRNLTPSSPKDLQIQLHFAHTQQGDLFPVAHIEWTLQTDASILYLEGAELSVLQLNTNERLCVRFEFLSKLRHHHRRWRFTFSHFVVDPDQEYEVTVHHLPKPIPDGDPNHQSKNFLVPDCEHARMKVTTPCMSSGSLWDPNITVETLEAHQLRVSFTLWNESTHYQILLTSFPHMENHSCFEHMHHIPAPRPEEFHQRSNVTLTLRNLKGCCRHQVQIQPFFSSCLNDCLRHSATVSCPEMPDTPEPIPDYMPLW

[5] = target: T4, human IL-17A (human, UniProt Q16552 24-155); test: cell-based competition binding, FACS
T4 construct: also called hIL-17A; hIL17A
T4 sequence: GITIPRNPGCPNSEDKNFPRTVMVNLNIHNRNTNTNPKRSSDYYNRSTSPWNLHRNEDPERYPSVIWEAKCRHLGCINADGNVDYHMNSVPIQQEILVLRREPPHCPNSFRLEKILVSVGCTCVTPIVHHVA
Experimental: (§2) The biotinylation of the ligand allows for FACS detection using a secondary Streptavidin conjugated fluorophore. A reduction in cell bound ligand over a titration of the soluble receptor is recorded as a reduction in the mean fluorescence of the cells. Biotinylated ligands are individually pre-mixed at 1 ug/ml with titrating amounts of soluble receptor in staining media (HBSS+1% BSA+0.1% NaAzide+10 mM HEPES) in 100 ul volumes and incubated at RT for 15 minutes. A BHK cell line stably transfected with full length IL17RCx4 is prepared for ligand staining by resuspension with Versene (Invitrogen cat. 15040-066), equilibrating to 2×10e5 cells/100 ul, pelleting, and resuspension in the ligand/soluble receptor pre-mix. Stained cells are incubated at 4° for 30 minutes, washed 1× in staining media, and stained with Streptavidin-PE (BD Pharmingen cat. 554061) at a 1:100 ratio. Cells are incubated at 4° in the dark for 30 minutes, washed 2× in staining media, and re-suspended in a 1:1 ratio of staining media and Cytofix (BD Bioscience 554655). The BD LSRII Flow Cytometer or similar instrument is used for data collection and analysis. FIG. 5 depicts a standard graph. The graph was generated using the Prizm software program. The Y values represent the MFI normalized to maximum and minimum (100% and 0%) based on ligand only and no ligand/no soluble receptor control wells, and thus the percent binding of the ligand to the cells. The software calculates the IC50 for each curve.

[6] = target: T5, human IL-17F (human, UniProt Q96PD4 31-163); test: cell-based competition binding, FACS
T5 construct: also called hIL-17F; hIL17F
T5 sequence: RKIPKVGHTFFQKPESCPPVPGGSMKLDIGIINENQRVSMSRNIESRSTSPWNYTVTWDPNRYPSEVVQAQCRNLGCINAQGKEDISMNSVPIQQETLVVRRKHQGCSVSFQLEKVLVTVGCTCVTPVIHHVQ
Experimental: as §2

B1: murine IL-17F (ligand)
chain: RKNPKAGVPALQKAGNCPPLEDNTVRVDIRIFNQNQGISVPREFQNRSSSPWDYNITRDPHRFPSEIAEAQCRHSGCINAQGQEDSTMNSVAIQQEILVLRREPQGCSNSFRLEKMLLKVGCTCVKPIVHQAA
notes: also called mIL-17F; mIL17F
B1: no binding [1]; binds [2].

B2: human IL-17C (ligand, UniProt Q9P0M4 19-197, looked up)
chain: HHDPSLRGHPHSHGTPHCYSAEELPLGQAPPHLLARGAKWGQALPVALVSSLEAASHRGRHERPSATTQCPVLRPEEVLEADTHQRSISPWRYRVDTDEDRYPQKLAFAECLCRGCIDARTGRETAALNSVRLLQSLLVLRRRPCSRDGSGLPTPGAFAFHTEFIHVPVGCTCVLPRSV
notes: also called hIL-17C
B2: no binding (tested: 100 fold molar excess) [3].

B3: human IL-17E (ligand, UniProt Q9H293 33-177, looked up)
chain: YSHWPSCCPSKGQDTSEELLRWSTVPVPPLEPARPNRHPESCRASEDGPLNSRAISPWRYELDRDLNRLPQDLYHARCLCPHCVSLQTGSHMDPRGNSELLYHNQTVFYRRPCHGEKGTHKGYCLERRLYRVSLACVCVRPRVMG
notes: also called hIL-17E
B3: no binding [4]; no binding (tested: 100 fold molar excess) [3].

B4: human IL-17D (ligand, UniProt Q8TAD2 18-202, looked up)
chain: APRAGRRPARPRGCADRPEELLEQLYGRLAAGVLSAFHHTLQLGPREQARNASCPAGGRPADRRFRPPTNLRSVSPWAYRISYDPARYPRYLPEAYCLCRGCLTGLFGEEDVRFRSAPVYMPTVVLRRTPACAGGRSVYTEAYVTIPVGCTCVPEPEKDADSINSSIDKQGAKLLLGPNDAPAGP
notes: also called hIL-17D
B4: no binding [4]; no binding (tested: 100 fold molar excess) [3].

B5: Variant 1390 (Fc fusion)
chain: LERLVGPQDATHCSPGLSCRLWDSDILCLPGDIVPAPGPVLAPTHLQTELVLRCQKETDCDLCLRVAVHLAVHGHWEEPEDEEKFGGAADSGVEEPRNASLQAQVVLSFQAYPTARCVLLEVQVPAALVQFGQSVGSVVYDCFEAALGSEVRIWSYTQPRYEKELNHTQQLPALPWLNVSADGDNVHLVLNVSEEQHFGLSLYWNQVQGPPKPRWHKNLTGPQIITLNHTDLVPCLCIQVWPLEPDSVRTNICPFREDPRAHQNLWQAARLRLLTLQSWLLDAPCSLPAEAALCWRAPGGDPCQPLVPPLSWENVTVDKVLEFPLLKGHPNLCVQVNSSEKLQLQECLWADSLGPLKDDVLLLETRGPQDNRSLCALEPSGCTSLPSKASTRAARLGEYLLQDLQSGQCLQLWDDDLGALWACPMDKYIHKEPKSSDKTHTCPPCPAPEAEGAPSVFLFPPKPKDTLMISRTPEVTCVVVDVSHEDPEVKFNWYVDGVEVHNAKTKPREEQYNSTYRVVSVLTVLHQDWLNGKEYKCKVSNKALPSSIEKTISKAKGQPREPQVYTLPPSRDELTKNQVSLTCLVKGFYPSDIAVEWESNGQPENNYKTTPPVLDSDGSFFLYSKLTVDKSRWQQGNVFSCSVMHEALHNHYTQKSLSLSPGK
notes: The entry may include the signal peptide; also called IL17RC 1390
For B5, the IC50 [5] was 12 µg/mL and the IC50 [6] was 9 µg/mL.

B6: Variant 1459 (Fc fusion)
chain: AERLVGPQDATHCSPGLSCRLWDSDILCLPGDIVPAPGPVLAPTHLQTELVLRCQKETDCDLCLRVAVHLAVHGHWEEPEDEEKFGGAADSGVEEPRNASLQAQVVLSFQAYPTARCVLLEVQVPAALVQFGQSVGSVVYDCFEAALGSEVRIWSYTQPRYEKELNHTQQLPALPWLNVSADGDNVHLVLNVSEEQHFGLSLYWNQVQGPPKPRWHKNLTGPQIITLNHTDLVPCLCIQVWPLEPDSVRTNICPFREDPRAHQNLWQAARLRLLTLQSWLLDAPCSLPAEAALCWRAPGGDPCQPLVPPLSWENVTVDKVLEFPLLKGHPNLCVQVNSSEKLQLQECLWADSLGPLKDDVLLLETRGPQDNRSLCALEPSGCTSLPSKASTRAARLGEYLLQDLQSGQCLQLWDDDLGALWACPMDKYIHKEPKSSDKTHTCPPCPAPEAEGAPSVFLFPPKPKDTLMISRTPEVTCVVVDVSHEDPEVKFNWYVDGVEVHNAKTKPREEQYNSTYRVVSVLTVLHQDWLNGKEYKCKVSNKALPSSIEKTISKAKGQPREPQVYTLPPSRDELTKNQVSLTCLVKGFYPSDIAVEWESNGQPENNYKTTPPVLDSDGSFFLYSKLTVDKSRWQQGNVFSCSVMHEALHNHYTQKSLSLSPGK
notes: The entry may include the signal peptide; also called IL17RC 1459
B6 showed an IC50 [5] of 126 µg/mL and an IC50 [6] of 103 µg/mL.
